Test system: LITAF + STAT6(B) complex (Homo sapiens)
Experiment: cell_activity
Details: TNF promoter-luciferase in U2OS cells; inhibited by LITAF shRNA

Sequence of LITAF + STAT6(B) complex (Homo sapiens) (chain, as listed by the source, chain 1 of 2): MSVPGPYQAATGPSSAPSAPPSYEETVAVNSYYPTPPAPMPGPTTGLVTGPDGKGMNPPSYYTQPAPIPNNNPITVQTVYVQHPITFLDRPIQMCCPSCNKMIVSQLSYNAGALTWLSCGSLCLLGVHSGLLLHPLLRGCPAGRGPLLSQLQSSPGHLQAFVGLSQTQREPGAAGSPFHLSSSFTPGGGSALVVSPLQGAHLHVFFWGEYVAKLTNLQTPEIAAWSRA
Sequence of LITAF + STAT6(B) complex (Homo sapiens) (chain, as listed by the source, chain 2 of 2): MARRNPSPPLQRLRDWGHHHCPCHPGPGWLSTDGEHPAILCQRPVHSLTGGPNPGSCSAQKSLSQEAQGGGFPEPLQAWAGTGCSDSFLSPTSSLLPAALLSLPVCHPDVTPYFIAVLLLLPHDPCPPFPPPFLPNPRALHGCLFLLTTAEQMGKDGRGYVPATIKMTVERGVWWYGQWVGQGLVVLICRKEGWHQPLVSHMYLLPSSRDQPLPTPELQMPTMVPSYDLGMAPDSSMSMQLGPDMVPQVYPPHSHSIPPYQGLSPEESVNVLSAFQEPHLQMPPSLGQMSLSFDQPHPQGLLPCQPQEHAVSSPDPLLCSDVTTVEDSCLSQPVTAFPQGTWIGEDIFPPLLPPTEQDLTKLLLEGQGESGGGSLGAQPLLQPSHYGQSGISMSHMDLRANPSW

hTNF-alpha promoter DNA probe showed an activity (fold vs LITAF alone) of 1.5.

Reference: patent US20090062190
